# Assay results as given in the Immune Epitope Database (IEDB).
# Key:
# HLA-A*02:19 = assay: IEDB peptide-MHC binding, purified MHC/competitive/fluorescence; filed as Kd, often an IC50 or EC50 that approximates it; ≥ and ≤ were set here for values at or beyond the usual limits of such assays; conditions: source organism: Human immunodeficiency virus 1
# HLA-A*02:03 = assay: as above; conditions: source organism: Human immunodeficiency virus 1
# HLA-A*69:01 [1] = assay: as above
# HLA-A*02:01 [2] = assay: as above
# HLA-A*02:16 = assay: as above; conditions: source organism: Human immunodeficiency virus 1
# HLA-A*02:06 = assay: as above; conditions: source organism: Human immunodeficiency virus 1
# HLA-A*02:12 = assay: as above; conditions: source organism: Human immunodeficiency virus 1
# HLA-B*08:03 = assay: IEDB peptide-MHC binding, purified MHC/direct/fluorescence; filed as Kd, often an IC50 or EC50 that approximates it; ≥ and ≤ were set here for values at or beyond the usual limits of such assays; conditions: source organism: Cryptosporidium parvum Iowa II
# HLA-B*48:01 = assay: as above
# HLA-A*01:01 = assay: as above
# HLA-B*44:02 = assay: as above; conditions: source organism: Cryptosporidium hominis
# HLA-A*03:01 [3] = assay: as above; conditions: source organism: Cryptosporidium hominis
# HLA-A*31:01 [4] = assay: as above
# HLA-B*57:01 [5] = assay: as above; conditions: source organism: Cryptosporidium hominis
# HLA-B*40:01 = assay: as above
# HLA-B*58:01 = assay: as above
# HLA-B*07:02 = assay: as above; conditions: source organism: Cryptosporidium hominis
# HLA-B*18:01 = assay: as above; conditions: source organism: Cryptosporidium hominis
# HLA-A*33:01 = assay: IEDB peptide-MHC binding, purified MHC/competitive/radioactivity; filed as Kd, often an IC50 or EC50 that approximates it; ≥ and ≤ were set here for values at or beyond the usual limits of such assays; conditions: source organism: Vaccinia virus WR
# HLA-A*03:01 [6] = assay: as above; conditions: source organism: Vaccinia virus WR
# HLA-A*31:01 [7] = assay: as above; conditions: source organism: Vaccinia virus WR
# HLA-A*11:01 [8] = assay: as above; conditions: source organism: Vaccinia virus WR
# HLA-A*68:01 = assay: as above; conditions: source organism: Vaccinia virus WR
# HLA-C*08:02 = assay: IEDB peptide-MHC binding, purified MHC/direct/fluorescence; filed as Kd, often an IC50 or EC50 that approximates it; ≥ and ≤ were set here for values at or beyond the usual limits of such assays
# HLA-A*03:01 [9] = assay: IEDB peptide-MHC binding, purified MHC/competitive/fluorescence; filed as Kd, often an IC50 or EC50 that approximates it; ≥ and ≤ were set here for values at or beyond the usual limits of such assays; conditions: source organism: Vaccinia virus Copenhagen
# HLA-A*11:01 [10] = assay: as above; conditions: source organism: Vaccinia virus Copenhagen
# HLA-B*57:01 [11] = assay: as above; conditions: source organism: Vaccinia virus Copenhagen
# HLA-B*15:01 = assay: as above; conditions: source organism: Vaccinia virus Copenhagen
# HLA-B*15:17 = assay: as above; conditions: source organism: Vaccinia virus Copenhagen
# HLA-B*27:05 = assay: IEDB peptide-MHC binding, purified MHC/direct/fluorescence; filed as Kd, often an IC50 or EC50 that approximates it; ≥ and ≤ were set here for values at or beyond the usual limits of such assays; conditions: source organism: Camelpox virus M-96
# HLA-B*39:01 [12] = assay: as above; conditions: source organism: Variola virus
# HLA-A*69:01 [13] = assay: as above; conditions: source organism: Camelpox virus M-96
# HLA-A*02:01 [14] = assay: as above; conditions: source organism: Camelpox virus M-96
# HLA-A*26:01 = assay: as above; conditions: source organism: Variola virus
# HLA-B*08:01 = assay: as above; conditions: source organism: Variola virus
# HLA-B*15:09 = assay: as above; conditions: source organism: Variola virus
# HLA-C*12:03 = assay: as above
# HLA-C*03:03 = assay: as above; conditions: source organism: Rickettsia rickettsii str. 'Sheila Smith'
# HLA-B*51:01 = assay: IEDB peptide-MHC binding, purified MHC/competitive/fluorescence; filed as Kd, often an IC50 or EC50 that approximates it; ≥ and ≤ were set here for values at or beyond the usual limits of such assays; conditions: source organism: Mus musculus
# HLA-B*39:01 [15] = assay: as above; conditions: source organism: Mus musculus
# HLA-B*46:01 = assay: as above; conditions: source organism: Mus musculus
# HLA-B*27:03 = assay: as above; conditions: source organism: Mus musculus
# [16] = source organism: Human immunodeficiency virus 1
# [17] = source organism: Cryptosporidium hominis
# [18] = source organism: Camelpox virus M-96
# [19] = source organism: Rickettsia rickettsii str. 'Sheila Smith'
sequence,measurement,setting,value
SLVKHHMYV,Kd,HLA-A*02:19,17.2 nM
same,Kd,HLA-A*02:03,1.88 nM
same,Kd,HLA-A*69:01 [1]; [16],146 nM
same,Kd,HLA-A*02:01 [2]; [16],7.33 nM
same,Kd,HLA-A*02:16,0.572 nM
same,Kd,HLA-A*02:06,≤ 0.1 nM
same,Kd,HLA-A*02:12,9.35 nM
FMKSRVYSI,Kd,HLA-B*08:03,29 nM
same,Kd,HLA-B*48:01; [17],≥ 20000 nM
same,Kd,HLA-A*01:01; [17],≥ 20000 nM
same,Kd,HLA-B*44:02,≥ 20000 nM
same,Kd,HLA-A*03:01 [3],≥ 20000 nM
same,Kd,HLA-A*31:01 [4]; [17],≥ 20000 nM
same,Kd,HLA-B*57:01 [5],≥ 20000 nM
same,Kd,HLA-B*40:01; [17],≥ 20000 nM
same,Kd,HLA-B*58:01; [17],≥ 20000 nM
same,Kd,HLA-B*07:02,≥ 20000 nM
same,Kd,HLA-B*18:01,≥ 20000 nM
FTDISMSLY,Kd,HLA-A*33:01,≥ 77700 nM
same,Kd,HLA-A*03:01 [6],≥ 32200 nM
same,Kd,HLA-A*31:01 [7],10700 nM
same,Kd,HLA-A*11:01 [8],2530 nM
same,Kd,HLA-A*68:01,546 nM
same,Kd,HLA-C*08:02; source organism: Variola virus,19 nM
same,Kd,HLA-A*01:01; [18],≤ 1 nM
MTRVTNNVY,Kd,HLA-A*03:01 [9],≥ 20000 nM
same,Kd,HLA-A*11:01 [10],≥ 20000 nM
same,Kd,HLA-B*57:01 [11],98.6 nM
same,Kd,HLA-B*15:01,125 nM
same,Kd,HLA-B*15:17,≤ 1 nM
same,Kd,HLA-B*27:05,≥ 20000 nM
same,Kd,HLA-B*39:01 [12],≥ 20000 nM
same,Kd,HLA-B*48:01; [18],≥ 20000 nM
same,Kd,HLA-A*69:01 [13],≥ 20000 nM
same,Kd,HLA-A*02:01 [14],≥ 20000 nM
same,Kd,HLA-A*01:01; [18],2590 nM
same,Kd,HLA-A*26:01,237 nM
same,Kd,HLA-B*08:01,≥ 20000 nM
same,Kd,HLA-B*15:09,≥ 20000 nM
same,Kd,HLA-A*31:01 [4]; [18],≥ 20000 nM
same,Kd,HLA-B*40:01; [18],≥ 20000 nM
same,Kd,HLA-B*58:01; source organism: Variola virus,635 nM
FMPESSYLL,Kd,HLA-C*12:03; [19],707 nM
same,Kd,HLA-C*08:02; [19],≥ 20000 nM
same,Kd,HLA-C*03:03,443 nM
YTFCGTIEY,Kd,HLA-B*51:01,≥ 20000 nM
same,Kd,HLA-B*39:01 [15],≥ 20000 nM
same,Kd,HLA-B*46:01,11.4 nM
same,Kd,HLA-A*69:01 [1]; source organism: Mus musculus,≥ 20000 nM
same,Kd,HLA-A*02:01 [2]; source organism: Mus musculus,≥ 20000 nM
same,Kd,HLA-B*27:03,≥ 20000 nM
same,Kd,HLA-C*12:03; source organism: Mus musculus,≤ 1 nM
same,Kd,HLA-C*08:02; source organism: Mus musculus,≥ 20000 nM
